# The supplement of paper PMC9112550, “Optimization of the antimicrobial peptide Bac7 by deep mutational scanning” (BMC Biology, 2022)
# Tested on: Escherichia coli TOP10
# Test: shrunken log2 fold change of peptide-encoding DNA abundance (4.5 h post-induction vs induction); higher = less antimicrobial activity (less host growth inhibition)
# Conditions: time post-induction: 4.5 h; library: site-saturation at positions 5, 18, 19, 20
# 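Further: peptides expressed intracellularly from a pBAD plasmid library in pooled LB shake-flask culture, induced with 0.3% L-arabinose, DNA abundance read by NGS, three biological replicates, DESeq2 with apeglm shrinkage.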
row,Sequence,shrunken log2 fold change
1,RRIRDRPPRLPRPRPRPMHCPRP,-0.00112
2,RRIRDRPPRLPRPRPRPMIYPRP,-0.0383
3,RRIRDRPPRLPRPRPRPMKVPRP,-0.0768
4,RRIRDRPPRLPRPRPRPMMKPRP,0.157
5,RRIRDRPPRLPRPRPRPMMQPRP,0.0408
6,RRIRDRPPRLPRPRPRPMPIPRP,0.000679
7,RRIRDRPPRLPRPRPRPMPRPRP,0.26
8,RRIRDRPPRLPRPRPRPMQAPRP,-0.00208
9,RRIRDRPPRLPRPRPRPMQHPRP,-0.00754
10,RRIRDRPPRLPRPRPRPMQMPRP,0.467
11,RRIRDRPPRLPRPRPRPMRRPRP,0.363
12,RRIRDRPPRLPRPRPRPMSCPRP,-0.00207
13,RRIRDRPPRLPRPRPRPMSKPRP,0.101
14,RRIRDRPPRLPRPRPRPMSSPRP,0.0508
15,RRIRDRPPRLPRPRPRPMTWPRP,0.000751
16,RRIRDRPPRLPRPRPRPMWHPRP,-0.008
17,RRIRDRPPRLPRPRPRPMYFPRP,-0.358
18,RRIRDRPPRLPRPRPRPNAEPRP,0.359
19,RRIRDRPPRLPRPRPRPNAMPRP,-0.0158
20,RRIRDRPPRLPRPRPRPNAVPRP,-0.101
21,RRIRDRPPRLPRPRPRPNDHPRP,-0.53
22,RRIRDRPPRLPRPRPRPNEDPRP,0.00355
23,RRIRDRPPRLPRPRPRPNEEPRP,-0.019
24,RRIRDRPPRLPRPRPRPNEPPRP,-0.0233
25,RRIRDRPPRLPRPRPRPNFCPRP,-0.00997

row,Sequence,shrunken log2 fold change
1,RRIRDRPPRLPRPRPRPNFKPRP,-0.0287
2,RRIRDRPPRLPRPRPRPNFVPRP,-0.0655
3,RRIRDRPPRLPRPRPRPNGCPRP,-0.00152
4,RRIRDRPPRLPRPRPRPNGSPRP,-0.0808
5,RRIRDRPPRLPRPRPRPNIEPRP,-0.00164
6,RRIRDRPPRLPRPRPRPNIQPRP,-0.0288
7,RRIRDRPPRLPRPRPRPNNKPRP,-0.682
8,RRIRDRPPRLPRPRPRPNQEPRP,-0.0564
9,RRIRDRPPRLPRPRPRPNSAPRP,-1.36
10,RRIRDRPPRLPRPRPRPNTPPRP,-0.0665
11,RRIRDRPPRLPRPRPRPNTQPRP,0.0704
12,RRIRDRPPRLPRPRPRPNWWPRP,0.22
13,RRIRDRPPRLPRPRPRPNYIPRP,-1.03
14,RRIRDRPPRLPRPRPRPPCHPRP,-0.363
15,RRIRDRPPRLPRPRPRPPDAPRP,0.65
16,RRIRDRPPRLPRPRPRPPDHPRP,0.527
17,RRIRDRPPRLPRPRPRPPFMPRP,0.042
18,RRIRDRPPRLPRPRPRPPFNPRP,-0.217
19,RRIRDRPPRLPRPRPRPPFYPRP,-0.213
20,RRIRDRPPRLPRPRPRPPGDPRP,1.29
21,RRIRDRPPRLPRPRPRPPGSPRP,0.511
22,RRIRDRPPRLPRPRPRPPHIPRP,-0.213
23,RRIRDRPPRLPRPRPRPPHRPRP,0.195
24,RRIRDRPPRLPRPRPRPPIPPRP,-0.0554
25,RRIRDRPPRLPRPRPRPPKEPRP,-0.2

row,Sequence,shrunken log2 fold change
1,RRIRDRPPRLPRPRPRPPKTPRP,0.257
2,RRIRDRPPRLPRPRPRPPLCPRP,0.223
3,RRIRDRPPRLPRPRPRPPLHPRP,0.177
4,RRIRDRPPRLPRPRPRPPLIPRP,0.129
5,RRIRDRPPRLPRPRPRPPLPPRP,0.737
6,RRIRDRPPRLPRPRPRPPLWPRP,0.228
7,RRIRDRPPRLPRPRPRPPMVPRP,0.207
8,RRIRDRPPRLPRPRPRPPNGPRP,0.0163
9,RRIRDRPPRLPRPRPRPPPTPRP,0.973
10,RRIRDRPPRLPRPRPRPPQAPRP,0.268
11,RRIRDRPPRLPRPRPRPPQTPRP,0.115
12,RRIRDRPPRLPRPRPRPPVFPRP,1.59
13,RRIRDRPPRLPRPRPRPPVNPRP,0.519
14,RRIRDRPPRLPRPRPRPPWFPRP,0.336
15,RRIRDRPPRLPRPRPRPPYNPRP,-0.395
16,RRIRDRPPRLPRPRPRPQHDPRP,-0.249
17,RRIRDRPPRLPRPRPRPQISPRP,0.141
18,RRIRDRPPRLPRPRPRPQNAPRP,-0.111
19,RRIRDRPPRLPRPRPRPQNDPRP,-0.215
20,RRIRDRPPRLPRPRPRPQNHPRP,-0.34
21,RRIRDRPPRLPRPRPRPQPIPRP,0.152
22,RRIRDRPPRLPRPRPRPQPKPRP,0.026
23,RRIRDRPPRLPRPRPRPQQDPRP,0.0798
24,RRIRDRPPRLPRPRPRPQQPPRP,0.902
25,RRIRDRPPRLPRPRPRPQQQPRP,-0.114
